The assay has as its target Paracoccidioides brasiliensis 1-Cys peroxiredoxin (PbPrx1), recombinant (Paracoccidioides brasiliensis (isolate Pb18)). Description: SEC; analytical HPLC, Phenomenex BioSep-SEC-S3000 column, 50 uM protein in 100 mM Tris-HCl pH 7.4, run in 100 mM Tris-HCl pH 7.4 with 50 mM NaCl, 1.0 mL/min; samples treated beforehand with 5 mM TCEP (reduced) or 1.2 molar equivalents of H2O2 (oxidised) for 30 min at 25 C; dimeric in both redox states. For orientation: Size exclusion chromatography separates by hydrodynamic size, large species first.

Consider “Paracoccidioides brasiliensis 1-Cys peroxiredoxin (PbPrx1), recombinant (enzyme)”, for which the stoichiometry N (usually a count of units in the complex or per binding partner) came to 2.

These data come from article PMC7417364.
